We go through 1 molecule from US20260049279A1 (published 2026).

This assay addresses T1, ALK peptide on H-2Dd (mouse).
T1 peptide: PGPGRVAKI
The assay is described as follows: multimer staining.

B1: Clonotype_1 (Table 1) (TCR, V domains shown)
Valpha: QQKVQQSPESLSVPEGGMASFNCTSSDRNFQYFWWYRQHSGEGPKALMSIFSDGDKKEGRFTAHLNKASLHVSLHIRDSQPSDSALYFCAASEHGNNRIFFGDGTQLVVKP
Vbeta: ETAVFQTPNYHVTQVGNEVSFNCKQTLGHDTMYWYKQDSKKLLKIMFSYNNKQLIVNETVPRRFSPQSSDKAHLNLRIKSVEPEDSAVYLCASSQDWDEQYFGPGTRLTVL
Regarding B1, the binding result is reported as “recognises”.
